The chains are these.
B1: SAGA-associated factor 29 (Homo sapiens), Q96ES7 (parent)
chain: MALVSADSRIAELLTELHQLIKQTQEERSRSEHNLVNIQKTHERMQTENKISPYYRTKLRGLYTTAKADAEAECNILRKALDKIAEIKSLLEERRIAAKIAGLYNDSEPPRKTMRRGVLMTLLQQSAMTLPLWIGKPGDKPPPLCGAIPASGDYVARPGDKVAARVKAVDGDEQWILAEVVSYSHATNKYEVDDIDEEGKERHTLSRRRVIPLPQWKANPETDPEALFQKEQLVLALYPQTTCFYRALIHAPPQRPQDDYSVLFEDTSYADGYSPPLNVAQRYVVACKEPKKK

The first assay covers variants of B1. The settings on record: with h31_human H3C1, P68431.
Consider D194A, for which the “effect of a mutation on the interaction” value is “disrupting interaction”.

In another assay the parent is B1. The settings on record: with h31_human H3C1, P68431. This is another data set of the same source.
For Y238A, the “effect of a mutation on the interaction” value is listed as “decreasing interaction”.

The variants in the next assay derive from B1. The settings on record: with h31_human H3C1, P68431. The source holds these as a separate data set.
Regarding D266A, the “effect of a mutation on the interaction” value is “decreasing interaction”.

The variants in the next assay derive from B1. The settings on record: with h31_human H3C1, P68431. The source holds these as a separate data set.
Regarding Q240A, the “effect of a mutation on the interaction” value is recorded as “decreasing interaction”.

Variants of B1 are the subject of a further assay. To be noted: with h31_human H3C1, P68431. This is another data set of the same source.
Consider Y245A, for which the “effect of a mutation on the interaction” value is reported as “disrupting interaction”.

A further assay covers variants of B1. The settings on record: with h31_human H3C1, P68431. The source holds these as a separate data set.
With D196R, the “effect of a mutation on the interaction” value was “disrupting interaction”.

In another assay the parent is B1. To be noted: with h31_human H3C1, P68431. This is another data set of the same source.
Consider D196A, for which the “effect of a mutation on the interaction” value is recorded as “decreasing interaction”.

Variants of B1 are the subject of another assay. The settings on record: with h31_human H3C1, P68431. The source holds these as a separate data set.
On to D196A, for which the “effect of a mutation on the interaction” value is “disrupting interaction”.

Variants of B1 are the subject of the next assay. To be noted: with h31_human H3C1, P68431. This is another data set of the same source.
Consider F264A, for which the “effect of a mutation on the interaction” value is on record as “decreasing interaction”.

The variants in a further assay derive from B1. The settings on record: with h31_human H3C1, P68431. The source holds these as a separate data set.
As to T242A, the “effect of a mutation on the interaction” value is given as “decreasing interaction”.

(Values after IntAct's records for PubMed 21685874.)
